Data as given in doi:10.1101/2022.02.27.481910 (bioRxiv, 2022).

B1: KaiC-EE (S431E, T432E) (enzyme)
chain: EHQAIAKMRTMIEGFDDISHGGLPIGRSTLVSGTSGTGKTLFSIQFLYNGIIEFDEPGVFVTFEETPQDIIKNARSFGWDLAKLVDEGKLFILDASPDPEGQEVVGGFDLSALIERINYAIQKYRARRVSIDSVTSVFQQYDASSVVRRELFRLVARLKQIGATTVMTTERIEEYGPIARYGVEEFVSDNVVILRNVLEGERRRRTLEILKLRGTSHMKGEYPFTITDHGINIFPLGAMRLTQRSSNVRVSSGVVRLDEMCGGGFFKDSIILATGATGTGKTLLVSRFVENACANKERAILFAYEESRAQLLRNAYSWGMDFEEMERQNLLKIVCAYPESAGLEDHLQIIKSEINDFKPARIAIDSLSALARGVSNNAFRQFVIGVTGYAKQEEITGLFTNTSDQFMGAHSITDSHIEEITDTIILLQYVEIRGEMSRAINVFKMRGSWHDKAIREFMISDKGPDIKDSFRNFERIISGSPTRI

Assays:
KaiC-AA (S431A, T432A) = KaiC-AA (S431A, T432A) (UniProt Q79PF4); assay: cryo-EM structure
cryo-EM structure = target: the molecule itself; assay: cryo-EM structure

| Molecule | stoichiometry N (KaiC-AA (S431A, T432A)) | stoichiometry N (cryo-EM structure) |
| --- | --- | --- |
| KaiC-AA (S431A, T432A) (from UniProt Q79PF4 14-484) (enzyme) | 6 | – |
| B1 | – | 6 |
